Measurements reported in patent US8323941B2, “Histone demethylation mediated by the nuclear amine oxidase homolog LSD1” (President and Fellows of Harvard College, priority 2004, dated 2012).

What was measured:
LSD1 [1] = molecular target: T1, LSD1 (Homo sapiens, UniProt O60341); test: LSD1 demethylation assay on nucleosomal substrates (mononucleosomes), Western blotting; type: biochemical; set-up: Full length (1-851aa) and C-terminal deleted (1-427 aa) human LSD1 cDNAs; 6xHis (N); made in house; host or cells: bacteria
Protocol: Preparation of mononucleosome. Mononucleosome was made according to a standard protocol (Tagami et al., 2004; Utley et al., 1996). Briefly, nuclear pellet from both TSA-treated or non-treated HeLa cells was homogenized for 60 times with type A pestle to obtain oligo-nucleosomes. The oligo-nucleosomes were then digested with micrococcal nuclease (40 units/mL) for 10 mins at 30° C. The nuclease is inactivated by 5 mM EDTA. Digested materials were spun at 14000 rpm for 3 mins. Resulting supernatant was spun again for additional 3 mins at the same speed. Supernatant from the second spin was subject to 10-25% glycerol gradient sedimentation. The monocleosome-containing fractions were identified by examining aliquots of fractions (treated with proteinase K) on DNA agarose gel. An aliquot of TSA-treated or non TSA-treated mononucleosome, a kind gift from Dr. Yoshihiro Nakatani's Lab in Dana Faber Cancer Institute, Harvard Medical School (Tagami et al., 2004), was used here as a control for the quality of mononucleosome made in our lab.
(§1) Demethylation assay. LSD1 demethylation activity on free histone or nucleosomal histone was carried out as previously reported (Shi et al., 2004). Briefly, bulk histones or mononucleosomes were incubated with purified His-LSD1 with or without purified His-CoREST, His-CoREST mutants, His-BHC80 and/or GST-HDAC1 in the histone demethylase activity (HDM) assay buffer (50 mM Tris pH8.5, 50 mM KCl, 5 mM MgCl, 0.5% BSA and 5% glycerol) from 10 mins up to 1 hour at 37° C. The demethylase activity of LSD1 under various conditions was evaluated by Western blotting using K4-H3 methylation-specific antibodies.

LSD1 [2] = molecular target: T1, LSD1; test: LSD1 demethylation assay on free (bulk) histones, Western blotting; type: biochemical; set-up: Full length (1-851aa) and C-terminal deleted (1-427 aa) human LSD1 cDNAs; 6xHis (N); made in house; host or cells: bacteria (IPTG induction); conditions: H3-K4 demethylation, recombinant LSD1
Protocol: as §1

## BHC80: PHD domain-containing component of the BRAF35/HDAC2 complex, recombinant
LSD1 [1]; bacterially purified protein added to recombinant LSD1
  effect of added protein on ability of recombinant LSD1 to demethylate nucleosomal substrates: no effect
LSD1 [1]; increasing amounts of BHC80, nucleosomal substrates
  demethylase activity of LSD1/CoREST: proportional decrease
LSD1 [2]
  effect on LSD1 demethylase activity on free histones: significantly dampened
